# Measured values reported in the DeepSol protein solubility set.
# Assay: soluble on expression in E. coli; label from the status in PepcDB or PDB records
row,Sequence,soluble on expression in E. coli
1,MALMNILPFARFLLDQAVNEGDIAVDATVGNGHDTVYLAERVGDFGHVFGFDIQPEAITAASARLAEHGLCGRATLFERSHSELLEALPADVHGRIAGAVFNLGYLPGGNKQIVTQPESTIEAVRQLLSVMKPGGVIVLVVYHGHPEGKRERDALLDYVRSLDQRRVHALKYEFINRQNNPPFLIALENRADGGA,not soluble
2,MALNNFLTFQLLLLLLRVSSESPWIVAGDVSRIPINFLELAKSPEVFDSMVRIRRKIHENPELGYEEFETSKFIRSELDLIGVKYRFPVAITGIIGYIGTGEPPFVALRADMDALPIQEAVEWEHKSKNPGKMHACGHDGHVAMLLGAAKILQQHRQHLQGTVVLIFQPAEEGLSGAKMMREEGALKNVEAIFGIHLSPRTPFGKAASLAGSFMAGAGAFEAVITGKGGHAAIPQHTIDPVVAASSIVLSLQHLVSRETDPSDSKVVTVTKVNGGNAFNVIPDSITIGGTLRAFTGFTQLQERIKEIITKQAAVHRCNASVNLAPNGNQPMPPTVNNMDLYKKFKKVVRDLLGQEAFVEAVPEMGSEDFSYFAETIPGHFSLLGMQDETQGYASSHSPHYRINEDVLPYGAAIHATMAVQYLKDKASKGSVSGFHDEL,soluble
3,MALNVNRAVADPFYRYKMPKLSAKVEGKGNGIKTVISNMSEIAKALERPPMYPTKYFGCELGAQTNFDAKNERYIVNGEHDANKLQDILDGFIKKFVLCKSCENPETQLFVRKNNIKSKCKACGCSFDIDLKHKLSTFIMKNPPKIDVDFSKAEQKNGKKTSGADAAAAVAADIIHNSDKGSSNDDDDDDWEPEPVEPNGMLSAGMGKLVLDKDLEKSEEQRLDMLHTFFLKAKEEDRISDAKGQTALRDEAERLELKQKASLLLANVFLDEKVITDKQISKHRNLLLRFTLNDKKAQRYLLGGVEQVIHKHEAELLSKSAHIIKSLYDEDVCEEDSLISWGEKPSSKYVSKSFAKKIIENSQPVLNWLKEAEEETEEESDDEIAFGGDVKESEFLRQQKEKAAREAQQKSAKATNGNAAAASGANDEEDLDIDDI,soluble
4,MALPPGLMVVEEIISSEEEKMLLESVDWTEDTDNQNSQKSLKHRRVKHFGYEFHYENNNVDKDKPLSGGLPDICESFLEKWLRKGYIKHKPDQMTINQYEPGQGIPAHIDTHSAFEDEIVSLSLGSEIVMDFKHPDGIAVPVMLPRRSLLVMTGESRYLWTHGITCRKFDTVQASESLKSGIITSDVGDLTLSKRGLRTSFTFRKVRQTPCNCSYPLVCDSQRKLEHHHHHH,soluble
5,MALPRITQKEMTEREQRELKTLLDRARIAHGRVLTNSETNSIKKDYIDKLMVEREAEAKKARQLKKKQAYKPDPEASFSWSANTSTRGRR,soluble
6,MALTSVSVYELSRLGPPQQPVRRRSNSTKVRRKDAELGSVDRKRNPKRNQIQPQHNESITITYMGRPRSPSVDLPTSPPIPSVIRQRRSSSTVAKKLPQSASNPSFLRKQGSSSSLSNGLWTDCIEVVNEIGVMAKMESRKIRRLRMAVYRRVRISDDEEMVLTASRALSKCHGWTLDTCHDYLPVIIDNIISMDTSNRIIAAEGLAAIADSLGERLVKFAGMNSHRIGVDIAAEERSEKAKACIQLLRSVVRKRDWYYRHLDVESIDRLDATMERLKSI,not soluble
7,MALTVSLLDKLIDSDPTTREEKDFPVSQQHMLNGLLRDLESMLNSRIGWKNIHEDFLEVRYSILNYGLPDFSSMPYSSQDGQSQLCDIVYEAIREFEPRLRNPHVQISDEKNAIDRTLRLEISATCLIDNDIHELRFNSEVEPVNLGMKLSRAK,not soluble
8,MALVPYEESAAIGLQKFHKPLATFSFANHTIQIRQDWRQLGVAAVVWDAAVVLSMYLEMGAVELRGCSAVELGAGTGLVGIVAALPGAQVTITDRKVALEFLKSNVEANLPPHIQPKAVVKELTWGQNLESFSPGEFDLILGADVIYLEDTFTDLLQTLGHLCSNNSVILLACRIRYERDSNFLTMLERQFTVSKVHYDPEKDVHIYKAQKRNQREDL,not soluble
9,MAMAALKDLVEFQLKNAQELVTVLEAEKVAITSRISVDIESIAKQKLTLVNQLQQTDQRIAKHPHVASLTEDTYLNELVSQIRSIIMDCQQANLINGDALARAQLSFNKLNNLMQQSHGKIGMTYSATGKTHTISTLGTNIKA,not soluble
10,MAMHTWFECKIRYEKTMENGMQKKVTEPYLVDALSFTEAEARIIEEMTPFITGEFTVSDIKRANYSELFPSDEESADRWFKCKLIFITLDEKSGAEKKTSTQVLVQAADLRDAVKKLDEGMKGTMADYQIGMVSETPLMDVYPYSAGPNDKPEFDPSKA,not soluble
11,MAMITGGELVVRTLIKAGVEHLFGLHGSHIDTIFQACLDHDVPIIDTRHEAAAGHAAEGYARAGAKLGVALVTAGGGFTNAVTPIANAWLDRTPVLFLTGSGALRDDETNTLQAGIDQVAMAAPITKWAHRVMATEHIPRLVMQAIRAALSAPRGPVLLDLPWDILMNQIDEDSVIIPDLVLSAHGARPDPADLDQALALLRKAERPVIVLGSEASRTARKTALSAFVAATGVPVFADYEGLSMLSGLPDAMRGGLVQNLYSFAKADAAPDLVLMLGARFGLNTGHGSGQLIPHSAQVIQVDPDACELGRLQGIALGIVADVGGTIEALAQATAQDAAWPDRGDWCAKVTDLAQERYASIAAKSSSEHALHPFHASQVIAKHVDAGVTVVADGALTYLWLSEVMSRVKPGGFLCHGYLGSMGVGFGTALGAQVADLEAGRRTILVTGDGSVGYSIGEFDTLVRKQLPLIVIIMNNQSWGATLHFQQLAVGPNRVTGTRLENGSYHGVAAAFGADGYHVDSVESFSAALAQALAHNRPACINVAVALDPIPPEELILIGMDPFGSHHHHHH,soluble
12,MAMKRREMLSLCGKSVIALGCGGLPAILRAQGRFPSKALTYVVAYTPGSANDILVRILAPELGTQLGQSIIVDNKPGAGGSIGMAAVAQSKADGYTLGLGSTATMAINRALYKNLPYDPLRDFESVVKFASTANVLVVPAGGPAKTLADLKPRDGKPLMFSSPGNGTTQHLAGVLFSSTTKLPTEHVPYRGPAESVMAVASGEVDFSLASLPSALAQIRAGRLRVLGCTSLKPPSSLPQAVSLAEQGLPGFERTEVWFGLVVPSGTPDQARLALEQASVQVLGKQDVREKLEQAGYQPANPQSEGKFDPFVREQVAFWADLVKQAGASIDLEHHHHHH,soluble
13,MAMQLEICANSAASCRQAELGGATRVELCAGIPEGGTTPSAGEMAVARSLIAIPIHVIIRPRAGDFVYSSEEIEAMCYDIRVVRSLGMEGVVFGCLTPEGGYDEEANSRLLKEAQGMQLTFHRAFDVCAAPFEMLEKLIAAGFHRVLTSGCAPTALEGKDMIGALNKQATGRIGIMAGCGIRLGNIETLARHTGITQFHSSLRHDIPSSMRFRRPEVSMGGTVKIDEYSRPETSADMVRQAVDILQGILEHHHHHH,not soluble
14,MANDGYFEPTQELSDETRDMHRAIISLREELEAVDLYNQRVNACKDKELKAILAHNRDEEKEHAAMLLEWIRRCDPAFDKELKDYLFTNKPIAHE,soluble
15,MANELATEGASGVDAPRIGPRLKAARQAQRLTLDDLAASCGITKGYLSKIERDHASASVATLVRICAALNIPVGSLFESSAAGEVVRADNYPPISFGGERMAEFLLTPFGERRIQSLLSRIEPGGGSGSETYELPVDVAFVYVVSGRICISFNGPGAGEDVSLATGDAFTFSPQLPHSFRALGDDTATVLWILTPALPDDVRPTSR,not soluble
16,MANEPQKSDDNGQAAEAVVTDDEIVLQDQQLKTIEDEQKSVPLVATLAPFSILCAEYDNETSAAFLSKATELSEVYGEIRYIRGDGNCFYRAILVGLIEIMLKDRARLEKFIASSRDWTRTLVELGFPDWTCTDFCDFFIEFLEKIHSGVHTEEAVYTILNDDGSANYILMFFRLITSAFLKQNSEEYAPFIDEGMTVAQYCEQEIEPMWKDADHLAINSLIKAAGTRVRIEYMDRTAAPNGGWHYDIPSDDQQIAPEITLLYRPGHYDVIYKKDSTEASEIEN,not soluble
17,MANFTAADVKRLRELTGAGMLACKNALAETDGDFDKAVEALRIKGAKDVGKRAERATAEGLVAAKDGALIELNCETDFVAKNAEFQTLADQVVAAAAAAKPADVDALKGASIGDKTVEQAIAELSAKIGEKLELRRVAIFDGTVEAYLHRRSADLPPAVGVLVEYRGDDAAAAHAVALQIAALRARYLSRDDVPEDIVASERRIAEETARAEGKPEQALPKIVEGRLNGFFKDAVLLEQASVSDNKKTVKALLDVAGVTVTRFVRFEVGQA,not soluble
18,MANGTVLHFRFNVKQIRAKIVRKSYRFFPNDTAGHIRNMHDTMNKIFENSPPAFSYKPIETLNKCIAKVKSDVCHSTGGICKAAMDNVTNWVYNTTEGLFTTGTRLIV,not soluble
19,MANHKPEIVITYCTQCQWLLRAAWLAQELLSTFADDLGRVALEPGTGGIFRITCNGVQIWERKADGGFPEAKVLKQRVRDQVDPQRDLGHNDRLEHHHHHH,soluble
20,MANMKENEKVIMEKGIHTDFKENMTYGEYLQLDSLLSSQKRLSDHHDEMLFIVIHQASELWMKLILHELNAAIEFIKQDKLQPAFKMLARVSKIQSQIIQSWDILATLTPSEYIEFRDSLGQASGFQSYQYRMIEYALGYKTPHALKIYEKDPELHARLHKALHAPSLYDVAIQALVKEGFPIHKDVLNRDITQPYEEDATVEAAWLEVYADVKKYWNLYQLAEKLIDIEDWLQQWRFRHMKTVERIIGHKMGTGGSSGVSYLKRVLDQQFFPELWNVRTKLMAGDPNSLEHHHHHH,soluble
21,MANRCRLKPYNRRQNNACSNRTHTLPANGLRNLRLLDLRTKVTELKHIGGQSTAAIADLAGEMRRLAKKSKMLLKGLWPFLSSTISAFKINQSLFKHYYKTVQLLNCKHRKKNY,not soluble
22,MANSSPCMKAVRVPKSEAEQVRRLAEKLGVKDKSRRITATGDYVEIPIIDSAESFFKGYTIVEQDNPVFSRKRSLREILRGKVPEELIPTNYKVIGDIVVVKLDERAREYAKVIGEALMQINPCKAVWCDYGRYGMKRKPRMELIAGEGSVTEHRENGCRFRIDVAKVMFSLGNQAERMRIARLVEDGEVVVDMFAGIGYFSIPIAVHSKARRIYSIEINPESYKLLLENIKLNDVGNIVPILGDSQFVTPEGVADRVVMGHIYCHDYLHTAIRALKERGVVHYHEATPEAVIDRPVRRVEKACRKMGKKCRILGFKKVKNYSPGVYHVVVDAEVY,not soluble
23,MANSSRRTTAFSEAEKAAVYRALLTRRDIRHFRPDPIPEEVLERLYQAFHAAPSVGLTQPWAIVEIRERATKERVFALHQEARARERALFQGKAQRVYDRLRLEGLLEAPLHLAVFQRPVARSLGHHTMPETLAYSVVLAVGNLWTAARAEGIGVGWVSILEPEAVARLLGAPPDYRLLAYLCLGYPRAWPDEPLLERAGWRQREPLLRYRERFP,soluble
24,MAPCLENVACVNLSAMPPAPPSPQPVSHKQAATLCRQGRTCALKSGSNESGGSVTSTYTSYRLISQDIGKSLERVSKQPDVARETEYYREKIGSVKSIDDFMADTRLYNYALKAHGLEDMAYAKAFIRKVLTEGASDKNAFANKLSDNRYAELAKSLDFAGLGAAATATEAAKSGVIGNYARQTLEQEAGDDNNGVRLALYFERKAPTIKSGLDFLADDALAQVFRTTFNLPDAFAAADVDKQAALIEKSINIKDLQDPEKVGKLLERFTIMWEMQNPSTTYDPLAVFGSSSGYGISPDLLISINSLKLGGKAAALEHHHHHH,soluble
25,MAPDDTVNTLFQVYKTISFWKVLKNTLVIEFGRFFPWMGGKRKIYRVCLGMEIGEKTAIAYKVMPDLFFPEKILIGENSIIGYHTTILTHEYLLSEYRVGEVVIGRDVMVGANVTILPGTVIGDGAVIAAGAVVSVDVPAGSFAYGNPLIIKEKATLTLEHHHHHH,soluble
